According to patent US9580731B2, “Methods of producing 7-carbon chemicals via c1 carbon chain elongation associated with coenzyme B synthesis” (INVISTA North America S.á r.l., priority 2012, dated 2017):

Assays:
Format in all cases: biochemical
[1] = Carboxylate reductase activity assay, pimelate to pimelate semialdehyde (NADPH consumption); details: 2 mM pimelate, enhanced by gene product of sfp, room temperature, 20 min, against empty vector control, FIG. 10
Protocol: A sequence encoding a HIS-tag was added to the genes from Segniliparus rugosus and Segniliparus rotundus that encode the carboxylate reductases of SEQ ID NOs: 4 and 7, respectively (see FIG. 7), such that N-terminal HIS tagged carboxylate reductases could be produced. Each of the modified genes was cloned into a pET Duet expression vector along with a sfp gene encoding a HIS-tagged phosphopantetheine transferase from Bacillus subtilis, both under the T7 promoter. Each expression vector was transformed into a BL21[DE3] E. coli host and the resulting recombinant E. coli strains were cultivated at 37° C. in a 250 mL shake flask culture containing 50 mL LB media and antibiotic selection pressure, with shaking at 230 rpm. Each culture was induced overnight at 37° C. using an auto-induction media.
The pellet from each induced shake flask culture was harvested via centrifugation. Each pellet was resuspended and lysed via sonication, and the cell debris was separated from the supernatant via centrifugation. […]
Enzyme activity assays (i.e., from pimelate to pimelate semialdehyde) were performed in triplicate in a buffer composed of a final concentration of 50 mM HEPES buffer (pH=7.5), 2 mM pimelate, 10 mM MgCl2, 1 mM ATP and 1 mM NADPH. […] The consumption of NADPH was monitored by absorbance at 340 nm.

[2] = Thioesterase enzyme activity assay, pimeloyl-CoA to pimelate (release of CoA, Ellman's reagent); details: 667 μM pimeloyl-CoA, 0.8 μM enzyme, pH 7.4, 37° C., 20 min, relative to empty vector control, FIG. 8
Protocol: A sequence encoding an N-terminal His tag was added to the tesB gene from Escherichia coli that encodes a thioesterase (SEQ ID NO 1, see FIG. 7), such that an N-terminal HIS tagged thioesterase could be produced. The modified tesB gene was cloned into a pET15b expression vector under control of the T7 promoter. The expression vector was transformed into a BL21[DE3] E. coli host. The resulting recombinant E. coli strain was cultivated at 37° C. in a 500 mL shake flask culture containing 50 mL Luria Broth (LB) media and antibiotic selection pressure, with shaking at 230 rpm. The culture was induced overnight at 17° C. using 0.5 mM IPTG.
The pellet from the induced shake flask culture was harvested via centrifugation. The pellet was resuspended and lysed in Y-Per™ solution (ThermoScientific, Rockford, Ill.). The cell debris was separated from the supernatant via centrifugation. […]
The enzyme activity assay was performed in triplicate in a buffer composed of 50 mM phosphate buffer (pH=7.4), 0.1 mM Ellman's reagent, and 667 μM of pimeloyl-CoA (as substrate). […] The release of Coenzyme A was monitored by absorbance at 412 nm. The absorbance associated with the substrate only control, which contained boiled enzyme, was subtracted from the active enzyme assay absorbance and compared to the empty vector control.

[3] = Carboxylate reductase activity assay, N7-acetyl-7-aminoheptanoate to N7-acetyl-7-aminoheptanal (NADPH consumption); details: 2 mM N7-acetyl-7-aminoheptanoate, enhanced by gene product of sfp, room temperature, 20 min, against empty vector control, FIG. 12
Protocol: The activity of each of the N-terminal His-tagged carboxylate reductases of SEQ ID NOs: 3, 6, and 7 (see Examples 4, and FIG. 7) for converting N7-acetyl-7-aminoheptanoate to N7-acetyl-7-aminoheptanal was assayed in triplicate in a buffer composed of a final concentration of 50 mM HEPES buffer (pH=7.5), 2 mM N7-acetyl-7-aminoheptanoate, 10 mM MgCl2, 1 mM ATP, and 1 mM NADPH. The assays were initiated by adding purified carboxylate reductase and phosphopantetheine transferase or the empty vector control to the assay buffer containing the N7-acetyl-7-aminoheptanoate then incubated at room temperature for 20 min. The consumption of NADPH was monitored by absorbance at 340 nm.

B1: SEQ ID NO 4: Segniliparus rugosus carboxylate reductase, Genbank Accession No. EFV11917.1 (protein, listed as Segniliparus rugosus)
chain: MGDGEERAKRFFQRIGELSATDPQFAAAAPDPAVVEAVSDPSLSFTRYLDTLMRGYAERPALAHRVGAGYETISYGELWARVGAIAAAWQADGLAPGDFVATVGFTSPDYVAVDLAAARSGLVSVPLQAGASLAQLVGILEETEPKVLAASASSLEGAVACALAAPSVQRLVVFDLRGPDASESAADERRGALADAEEQLARAGRAVVVETLADLAARGEALPEAPLFEPAEGEDPLALLIYTSGSTGAPKGAMYSQRLVSQLWGRTPVVPGMPNISLHYMPLSHSYGRAVLAGALSAGGTAHFTANSDLSTLFEDIALARPTFLALVPRVCEMLFQESQRGQDVAELRERVLGGRLLVAVCGSAPLSPEMRAFMEEVLGFPLLDGYGSTEALGVMRNGIIQRPPVIDYKLVDVPELGYRTTDKPYPRGELCIRSTSLISGYYKRPEITAEVFDAQGYYKTGDVMAEIAPDHLVYVDRSKNVLKLSQGEFVAVAKLEAAYGTSPYVKQIFVYGNSERSFLLAVVVPNAEVLGARDQEEAKPLIAASLQKIAKEAGLQSYEVPRDFLIETEPFTTQNGLLSEVGKLLRPKLKARYGEALEARYDEIAHGQADELRALRDGAGQRPVVETVVRAAVAISGSEGAEVGPEANFADLGGDSLSALSLANLLHDVFEVEVPVRIIIGPTASLAGIAKHIEAERAGASAPTAASVHGAGATRIRASELTLEKFLPEDLLAAAKGLPAADQVRTVLLTGANGWLGRFLALEQLERLARSGQDGGKLICLVRGKDAAAARRRIEETLGTDPALAARFAELAEGRLEVVPGDVGEPKFGLDDAAWDRLAEEVDVIVHPAALVNHVLPYHQLFGPNVVGTAEIIRLAITAKRKPVTYLSTVAVAAGVEPSSFEEDGDIRAVVPERPLGDGYANGYGNSKWAGEVLLREAHELVGLPVAVFRSDMILAHTRYTGQLNVPDQFTRLVLSLLATGIAPKSFYQQGAAGERQRAHYDGIPVDFTAEAITTLGAEPSWFDGGAGFRSFDVFNPHHDGVGLDEFVDWLIEAGHPISRIDDHKEWFARFETAVRGLPEAQRQHSLLPLLRAYSFPHPPVDGSVYPTGKFQGAVKAAQVGSDHDVPHLGKALIVKYADDLKALGLL
Q: For B1, which “carboxylate reductase activity for converting pimelate to pimelate semialdehyde (NADPH consumption, absorbance at 340 nm)” value [1] is on record?
A: accepted pimelate as substrate

B2: gene product of tesB: Escherichia coli thioesterase encoded by tesB, GenBank Accession No. AAA24665.1 (protein, listed as Escherichia coli)
chain: MSQALKNLLTLLNLEKIEEGLFRGQSEDLGLRQVFGGQVVGQALYAAKETVPEERLVHSFHSYFLRPGDSKKPIIYDVETLRDGNSFSARRVAAIQNGKPIFYMTASFQAPEAGFEHQKTMPSAPAPDGLPSETQIAQSLAHLLPPVLKDKFICDRPLEVRPVEFHNPLKGHVAEPHRQVWIRANGSVPDDLRVHQYLLGYASDLNFLPVALQPHGIGFLEPGIQIATIDHSMWFHRPFNLNEWLLYSVESTSASSARGFVRGEFYTQDGVLVASTVQEGVMRNHN
Q: Which “thioesterase activity for converting pimeloyl-CoA to pimelate (released CoA, absorbance at 412 nm)” value [2] does the source give for B2 here?
A: accepted pimeloyl-CoA as substrate

B3: SEQ ID NO 6: Mycobacterium massiliense carboxylate reductase, Genbank Accession No. EIV11143.1 (protein)
chain: MTNETNPQQEQLSRRIESLRESDPQFRAAQPDPAVAEQVLRPGLHLSEAIAALMTGYAERPALGERARELVIDQDGRTTLRLLPRFDTTTYGELWSRTTSVAAAWHHDATHPVKAGDLVATLGFTSIDYTVLDLAIMILGGVAVPLQTSAPASQWTTILAEAEPNTLAVSIELIGAAMESVRATPSIKQVVVFDYTPEVDDQREAFEAASTQLAGTGIALETLDAVIARGAALPAAPLYAPSAGDDPLALLIYTSGSTGAPKGAMHSENIVRRWWIREDVMAGTENLPMIGLNFMPMSHIMGRGTLTSTLSTGGTGYFAASSDMSTLFEDMELIRPTALALVPRVCDMVFQRFQTEVDRRLASGDTASAEAVAAEVKADIRDNLFGGRVSAVMVGSAPLSEELGEFIESCFELNLTDGYGSTEAGMVFRDGIVQRPPVIDYKLVDVPELGYFSTDKPHPRGELLLKTDGMFLGYYKRPEVTASVFDADGFYMTGDIVAELAHDNIEIIDRRNNVLKLSQGEFVAVATLEAEYANSPVVHQIYVYGSSERSYLLAVVVPTPEAVAAAKGDAAALKTTIADSLQDIAKEIQLQSYEVPRDFIIEPQPFTQGNGLLTGIAKLARPNLKAHYGPRLEQMYAEIAEQQAAELRALHGVDPDKPALETVLKAAQALLGVSSAELAADAHFTDLGGDSLSALSFSDLLRDIFAVEVPVGVIVSAANDLGGVAKFVDEQRHSGGTRPTAETVHGAGHTEIRAADLTLDKFIDEATLHAAPSLPKAAGIPHTVLLTGSNGYLGHYLALEWLERLDKTDGKLIVIVRGKNAEAAYGRLEEAFDTGDTELLAHFRSLADKHLEVLAGDIGDPNLGLDADTWQRLADTVDVIVHPAALVNHVLPYNQLFGPNVVGTAEIIKLAITTKIKPVTYLSTVAVAAYVDPTTFDEESDIRLISAVRPIDDGYANGYGNAKWAGEVLLREAHDLCGLPVAVFRSDMILAHSRYTGQLNVPDQFTRLILSLIATGIAPGSFYQAQTTGERPLAHYDGLPGDFTAEAITTLGTQVPEGSEGFVTYDCVNPHADGISLDNFVDWLIEAGYPIARIDNYTEWFTRFDTAIRGLSEKQKQHSLLPLLHAFEQPSAAENHGVVPAKRFQHAVQAAGIGPVGQDGTTDIPHLSRRLIVKYAKDLEQLGLL
modifications: Mycobacterium massiliense
Q: Which “carboxylate reductase activity for converting N7-acetyl-7-aminoheptanoate to N7-acetyl-7-aminoheptanal (NADPH consumption, absorbance at 340 nm)” value [3] does the source give for B3 here?
A: accepted N7-acetyl-7-aminoheptanoate as substrate
